Experimental data published in patent US12344663B2, “Anti-C3 antibodies and antigen-binding fragments thereof and their uses for treating eye or ocular diseases” (CDR-Life AG, priority 2021, dated 2025).
Where two headings read alike, the source gives them in different places.

Assays:
Alternative Pathway (AP) = assay: Hemolytic assay, rabbit erythrocytes in human serum; format: cell-based; details: MgEGTA, read-out: IC50 (nM) Alternative Pathway Hemolysis
Excerpt: The Alternative Pathway (AP) in human serum samples is spontaneously activated by rabbit erythrocytes. Since AP activation requires higher concentrations of serum, the Classical Pathway needs to be blocked with MgEGTA to chelate Ca2+ ions (AP only requires Mg2+ ions). AP activation results in C3 activation and subsequent formation of the Membrane Attack Complex (MAC). The MAC assembles on the membrane of rabbit erythrocytes leading to cell lysis. The level of hemoglobin released from lysed erythrocytes is measured at OD 414 nm and is proportional to the complement activity present in the serum sample.

[1] = Viscosity at high concentrations, cone-plate-rheometer; format: physicochemical; details: 20° C., shear-rate 1000 s^−1; for Viscosity [mPa * s] Fully formulated at 150 g/L: 10 mM His pH 5.5, 275 mM sucrose, 0.02% w/v Polysorbate20; for Viscosity [mPa * s] Minimal buffer at 185 g/L: 10 mM His pH 5.5
Experimental: Viscosity measurements are performed with the samples prepared for the storage stability study. In addition to the fully formulated samples (10 mM His pH 5.5, 275 mM sucrose, 0.02% w/v Polysorbate20), viscosity of each candidate is also measured in a minimal formulation (10 mM histidine pH 5.5). This is performed to evaluate the drug substance processability (e.g., filtration, pumping, diafiltration, etc.) of the candidates up to 125% of the final drug product concentration of 150 mg/ml.
Viscosity is measured at 20° C. at a shear-rate of 1000 s^−1 using a cone-plate-rheometer. Briefly, a stepwise increase of the shear rate up to 1,000 s^−1 is done collecting 100 data points, followed by a further increase of the shear rate up to 2000 s^−1, collecting another 10 data points. Finally, a stepwise decrease of the shear rate down to starting rate is done. Good drug product handling properties for filling and syringeability have been observed for all candidates

human C3 P314L = molecular target: T1, human C3 P314L (Homo sapiens, UniProt P01024, P314L); assay: SPR (Biacore T100) binding to C3 SNP1 P314L; details: for Kd: Table 20, SPR; for kd C3 SNP1 P314L: off-rate; for ka C3 SNP1 P314L: on-rate
T1 construct: 6×His (N); made in house; host or cells: CHO (ExpiFectamine CHO Expression Kit)
Experimental: (§1) The kinetic parameters of the candidates are determined using a surface plasmon resonance (SPR) and Biacore T100 device. C3 and different variants thereof (Table 19) are immobilized as a ligand on a HC30M SPR sensor chip (XanTec bionanalytics, Germany) using EDC/[…] linking chemistry. Five increasing concentrations of each molecule (analyte) are consecutively injected using the single cycle kinetics (SCK) mode to determine the kinetic parameters. Regeneration between the candidates is done with 10 mM glycine*HCl, 2 M NaCl, pH 3.5. The data is fitted to a 1:1 Langmuir binding model and the kinetic parameters of on-rate (ka), off-rate (kd), and affinity […] were determined.
Single nucleotide polymorphism (SNP) in C3 has been observed across the population and certain SNPs were identified in genome-wide association studies (GWAS) to correlate with an increased risk to develop AMD. […] Very rare variants, which occur in less that 2.5% of the population include K155Q, R735W, S1619W, K65Q and R161W.
(§2) Proteins are expressed with N-terminal 6×His tag and purified using a HisTrap Excel HP column (GE Healthcare), followed by a size-exclusion chromatography step (SUPERDEX®20010/300GL; GE Healthcare).

human C3 = human C3 (Homo sapiens, UniProt P01024); assay: SPR (Biacore T100) binding to human C3; details: for kd C3: off-rate; for ka C3: on-rate
Experimental: as §1

Classical Pathway = assay: WEISLAB Complement system Screen, classical pathway MAC (C5b-C9) formation; format: biochemical, human; details: human serum; read-out: IC50 (nM) Classical Pathway MAC deposition
Experimental: To identify antibodies that block all 3 complement pathways, antibodies are screened using an enzyme immunoassay for the qualitative determination of functional classical, lectin and alternative complement pathways in human serum using the WEISLAB® Complement system Screen (Svar Life Science AB, Malmö, Sweden).
To monitor inhibition of the complement system in human serum, the scFv of the invention or the comparator molecules are tested using an enzyme immunoassay for the qualitative determination of functional classical, lectin and alternative complement pathways in human serum using the WEISLAB® Complement system Screen (Svar Life Science AB, Malmö, Sweden), following the supplier's instructions. The amount of C5b-C9 neoantigen generated is proportional to the functional activity of complement pathways. The scFv of the invention and the comparator molecules are tested in a concentration response curve and the IC50 for the inhibition is calculated using the GraphPadPrism software and a non-linear, 4 parameters curve regression.

[2] = Storage stability at 150 mg/ml, chemical degradation by IEX-HPLC; format: physicochemical; details: for Starting charge purity (IEX-HPLC): before storage; for Storage stability, IEX 4 weeks at 25° C. [D %] / Storage stability, IEX 4 weeks at 40° C. [D %]: decrease versus start
Experimental: Clone I, clone II and clone III are tested for storage stability. Samples are concentrated to 150 mg/ml (Vivaspin20 centrifugal device, 5 kDa MWCO at 3800×g) and stored at 25° C. and 40° C. for up to 4 weeks. Samples are analyzed for oligomerization (SE-HPLC) and chemical degradation (IEX-HPLC). The starting monomeric purity as determined by SE-HPLC was 99.96% for each clone. The starting charge purity, as determined by IEX-HPLC was 98.07%, 97.16% and 96.76%, respectively for clone I, II and III.

[3] = molecular target: T2, recombinant C3 (wild-type human C3) (Homo sapiens, UniProt P01024); assay: SPR (Biacore T100) binding to recombinant C3; details: for Kd: Table 20, SPR; for kd recombinant C3: off-rate; for ka recombinant C3: on-rate
T2 construct: 6×His (N); made in house; host or cells: CHO (ExpiFectamine CHO Expression Kit)
Experimental: as §1, §2

cyno C3 = assay: SPR (Biacore T100) binding to cyno C3; set-up: species or system cynomolgus (Macaca fascicularis); details: for Kd: Table 20, SPR; for kd cyno C3: off-rate; for ka cyno C3: on-rate
Experimental: as §1

human C3b = molecular target: T3, human C3b (Homo sapiens, UniProt P01024); assay: SPR (Biacore T100) binding to human C3b; details: for kd C3b: off-rate; for ka C3b: on-rate
T3 construct: C3b is derived from native C3 and is the larger of two elements formed by the cleavage of C3
Experimental: as §1

[4] = Table 19, SPR, read-out: Affinity human C3
[5] = Table 20, SPR, read-out: KD (nM) C3
[6] = Table 19, SPR, read-out: Affinity human C3b
[7] = Table 20, SPR, read-out: KD (nM) C3b

T2 sequence (P01024 23-1663): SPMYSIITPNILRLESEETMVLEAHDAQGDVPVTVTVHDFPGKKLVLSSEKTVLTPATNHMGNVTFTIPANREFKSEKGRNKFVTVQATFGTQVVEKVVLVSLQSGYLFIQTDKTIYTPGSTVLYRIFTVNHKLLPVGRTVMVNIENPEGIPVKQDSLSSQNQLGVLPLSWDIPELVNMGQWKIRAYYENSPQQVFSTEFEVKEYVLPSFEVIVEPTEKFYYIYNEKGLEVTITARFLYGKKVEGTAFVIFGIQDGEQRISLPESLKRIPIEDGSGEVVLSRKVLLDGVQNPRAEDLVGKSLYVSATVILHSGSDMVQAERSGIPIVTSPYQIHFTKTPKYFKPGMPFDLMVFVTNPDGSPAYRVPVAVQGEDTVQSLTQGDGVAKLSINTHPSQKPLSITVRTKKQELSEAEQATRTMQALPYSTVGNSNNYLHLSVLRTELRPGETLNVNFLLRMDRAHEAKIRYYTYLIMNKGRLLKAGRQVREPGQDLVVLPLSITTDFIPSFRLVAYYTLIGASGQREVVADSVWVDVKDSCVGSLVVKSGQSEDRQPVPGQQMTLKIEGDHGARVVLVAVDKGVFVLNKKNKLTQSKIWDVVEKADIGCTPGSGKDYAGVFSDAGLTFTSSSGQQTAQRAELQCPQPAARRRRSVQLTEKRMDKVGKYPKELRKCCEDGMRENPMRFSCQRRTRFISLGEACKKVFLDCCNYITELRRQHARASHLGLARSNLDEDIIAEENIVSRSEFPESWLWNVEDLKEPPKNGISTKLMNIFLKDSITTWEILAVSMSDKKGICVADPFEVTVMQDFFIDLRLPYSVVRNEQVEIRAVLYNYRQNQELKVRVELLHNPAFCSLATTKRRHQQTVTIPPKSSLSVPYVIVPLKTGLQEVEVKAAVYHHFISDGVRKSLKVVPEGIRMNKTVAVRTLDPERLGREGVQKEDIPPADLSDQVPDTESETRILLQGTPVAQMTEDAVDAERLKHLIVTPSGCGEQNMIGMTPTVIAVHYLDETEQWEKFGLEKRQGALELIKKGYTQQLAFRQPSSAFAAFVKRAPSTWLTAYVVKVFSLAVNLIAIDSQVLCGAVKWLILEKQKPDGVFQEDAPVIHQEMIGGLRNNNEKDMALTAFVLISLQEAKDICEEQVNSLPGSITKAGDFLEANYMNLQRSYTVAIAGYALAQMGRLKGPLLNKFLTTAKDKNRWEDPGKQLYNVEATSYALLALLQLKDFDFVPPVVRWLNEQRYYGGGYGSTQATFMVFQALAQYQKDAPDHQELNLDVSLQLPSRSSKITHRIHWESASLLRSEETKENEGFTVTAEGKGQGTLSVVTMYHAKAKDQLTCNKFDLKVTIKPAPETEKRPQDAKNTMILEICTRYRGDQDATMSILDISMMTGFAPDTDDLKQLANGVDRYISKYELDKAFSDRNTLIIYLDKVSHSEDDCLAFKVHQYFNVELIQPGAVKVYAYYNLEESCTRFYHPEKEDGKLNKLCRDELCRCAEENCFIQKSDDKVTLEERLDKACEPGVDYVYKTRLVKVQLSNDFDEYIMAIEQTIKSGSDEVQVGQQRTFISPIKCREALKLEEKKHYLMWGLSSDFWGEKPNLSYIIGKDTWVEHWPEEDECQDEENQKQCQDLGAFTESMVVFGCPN
Chain of human C3 (P01024 23-1663): as above
T3 sequence (P01024 23-667 limits assumed): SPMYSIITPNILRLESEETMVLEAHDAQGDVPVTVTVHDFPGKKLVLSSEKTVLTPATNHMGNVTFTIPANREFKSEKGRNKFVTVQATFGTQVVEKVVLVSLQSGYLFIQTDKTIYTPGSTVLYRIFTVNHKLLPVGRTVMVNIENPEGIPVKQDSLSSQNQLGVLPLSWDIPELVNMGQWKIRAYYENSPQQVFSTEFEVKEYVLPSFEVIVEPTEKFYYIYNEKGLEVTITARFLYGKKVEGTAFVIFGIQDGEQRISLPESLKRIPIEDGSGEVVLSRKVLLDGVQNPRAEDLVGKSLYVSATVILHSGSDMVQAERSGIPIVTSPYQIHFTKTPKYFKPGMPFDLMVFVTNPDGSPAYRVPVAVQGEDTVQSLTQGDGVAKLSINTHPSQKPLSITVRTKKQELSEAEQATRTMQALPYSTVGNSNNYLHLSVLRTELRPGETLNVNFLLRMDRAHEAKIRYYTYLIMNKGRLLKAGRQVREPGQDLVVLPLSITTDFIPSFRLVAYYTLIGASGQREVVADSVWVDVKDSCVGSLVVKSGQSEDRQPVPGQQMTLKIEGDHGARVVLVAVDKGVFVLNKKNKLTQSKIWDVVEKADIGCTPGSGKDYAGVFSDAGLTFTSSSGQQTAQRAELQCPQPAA
T3 sequence (P01024 749-1663 limits assumed): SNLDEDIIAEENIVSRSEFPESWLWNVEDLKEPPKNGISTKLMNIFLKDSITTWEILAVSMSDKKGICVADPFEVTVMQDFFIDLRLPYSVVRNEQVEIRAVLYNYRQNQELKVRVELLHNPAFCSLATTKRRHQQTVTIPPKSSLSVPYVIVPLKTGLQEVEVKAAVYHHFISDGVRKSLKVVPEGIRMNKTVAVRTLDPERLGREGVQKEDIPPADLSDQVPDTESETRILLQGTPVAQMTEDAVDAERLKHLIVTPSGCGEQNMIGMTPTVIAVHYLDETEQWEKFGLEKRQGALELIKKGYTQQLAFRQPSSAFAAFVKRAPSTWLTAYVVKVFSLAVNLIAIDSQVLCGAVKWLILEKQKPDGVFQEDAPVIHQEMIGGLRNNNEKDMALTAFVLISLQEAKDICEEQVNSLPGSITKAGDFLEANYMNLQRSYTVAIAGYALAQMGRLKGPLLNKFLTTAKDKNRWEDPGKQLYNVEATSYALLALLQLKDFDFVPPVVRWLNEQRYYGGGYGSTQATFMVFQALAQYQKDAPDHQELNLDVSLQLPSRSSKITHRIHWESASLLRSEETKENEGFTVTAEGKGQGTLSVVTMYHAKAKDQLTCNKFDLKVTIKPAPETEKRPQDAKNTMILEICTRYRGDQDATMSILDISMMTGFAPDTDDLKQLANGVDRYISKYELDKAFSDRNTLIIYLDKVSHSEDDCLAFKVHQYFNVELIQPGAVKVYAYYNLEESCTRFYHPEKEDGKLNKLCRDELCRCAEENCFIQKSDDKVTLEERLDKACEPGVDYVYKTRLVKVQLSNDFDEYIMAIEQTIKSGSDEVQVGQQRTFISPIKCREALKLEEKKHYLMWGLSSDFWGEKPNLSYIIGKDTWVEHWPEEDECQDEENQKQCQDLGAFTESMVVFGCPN
T1 sequence (P01024 23-1663 P314L): as the sequence (P01024 23-1663) above, with P292L counted along it

| Molecule | IC50 (Alternative Pathway (AP)) [nM] | Viscosity [mPa * s] Fully formulated at 150 g/L [1] [mPa * s] | Viscosity [mPa * s] Minimal buffer at 185 g/L [1] [mPa * s] | Kd (human C3 P314L) [nM] | kd C3 SNP1 P314L (human C3 P314L) [s⁻¹] | ka C3 SNP1 P314L (human C3 P314L) [M⁻¹ s⁻¹] | Kd (human C3; [4]) [nM] | Kd (human C3; [5]) [nM] | kd C3 (human C3) [s⁻¹] | ka C3 (human C3) [M⁻¹ s⁻¹] | IC50 (Classical Pathway) [nM] | Starting charge purity (IEX-HPLC) [2] [%] | Storage stability, IEX 4 weeks at 25° C. [D %] [2] [D %] | Storage stability, IEX 4 weeks at 40° C. [D %] [2] [D %] | Kd [3] [nM] | kd recombinant C3 [3] [s⁻¹] | ka recombinant C3 [3] [M⁻¹ s⁻¹] | Kd (cyno C3) [nM] | kd cyno C3 (cyno C3) [s⁻¹] | ka cyno C3 (cyno C3) [M⁻¹ s⁻¹] | also measured |
| --- | --- | --- | --- | --- | --- | --- | --- | --- | --- | --- | --- | --- | --- | --- | --- | --- | --- | --- | --- | --- | --- |
| Clone I: humanized anti-C3 scFv, VH SEQ ID NO: 20, VL SEQ ID NO: 21; scFv SEQ ID NO: 26 or 27 (antibody, V domains shown, VH; VL) VH: QVQLVESGGGSVQPGRSLRLSCAASGFTFSNYAMNWVRQAPGKGLEWVAVISYDGSNKYYADSVKGRFTISRDNSKNTLYLQMNSLRAEDTASYYCARAVGYHHARLDPWGCGTSVTVSS VL: QLVLTQSPSASASLGASVKLTCTLSSAHKTYTIDWYQQQPEKCPRYLMQLKSDGSYTKGSGIPDRFSGSSSGAERYLTISSLQSEDEADYYCGTEGVGGYVFGGGTKLTVLG | 705 | 3.9 | 5.4 | 0.14 | 4.2e-05 | 300000 | 0.152 | 0.152 | 4.7e-05 | 310000 | 79 | 98.07 | 1.1 | 2.4 | 0.148 | 4.9e-05 | 330000 | 0.267 | 6.3e-05 | 240000 | Kd (human C3; Table 16, read-out: C3 (Kd)): 0.16 nM; Kd (human C3b; Table 16, read-out: C3b (Kd)): 0.14 nM; Kd (human C3b; [6]): 0.149 nM; Kd (human C3b; [7]): 0.149 nM; kd C3b (human C3b): 4.8e-05 s⁻¹; ka C3b (human C3b): 320000 M⁻¹ s⁻¹ |
| Clone II: humanized anti-C3 scFv, VH SEQ ID NO: 22, VL SEQ ID NO: 23; scFv SEQ ID NO: 28 or 29 (antibody, V domains shown, VH; VL) VH: QVQLVESGGGSVQPGRSLRLSCAASGFTFSNYAMNWVRQAPGKGLEWVAIINVGGGTNYADSVKGRFTISRDNSKNTLYLQMNSLRAEDTASYYCARAVGYHHARLDPWGCGTSVTVSS VL: QLVLTQSPSASASLGASVKLTCTLSSAHKTYTIDWYQQQPEKCPRYLMQLKSDGSYTKGSGIPDRFSGSSSGAERYLTISSLQSEDEADYYCGTEGVGGYVFGGGTKLTVLG | 668 | 3.9 | 4.5 | < 0.04 | <1.1e-05 | 290000 | 0.022 | 0.022 | 5.5e-06 | 250000 | 77 | 97.16 | 0.5 | 3.3 | 0.035 | 1e-05 | 300000 | 0.07 | 1.5e-05 | 210000 | Kd (human C3b; [6]): 0.05 nM; Kd (human C3b; [7]): 0.05 nM; kd C3b (human C3b): 1.2e-05 s⁻¹; ka C3b (human C3b): 250000 M⁻¹ s⁻¹ |
